Here are results for one molecule from patent publication US20220288204A1, “DOSAGE AND ADMINISTRATION OF ANTI-ERBB3 (HER3) MONOCLONAL ANTIBODIES TO TREAT TUMORS ASSOCIATED WITH NEUREGULIN 1 (NRG1) GENE FUSIONS” (ELEVATION ONCOLOGY, INC., priority 2021, published 2022).

One assay deals with LUAD-0061AS3 cells. As to the kind of experiment: AlamarBlue viability dose-response (growth inhibition). The assay is classed as cell-based, human. The note with it: 96 hours. The procedure: (§1) Expression of […] (FIG. 1A) or SLC3A2-NRG1 (FIG. 2B) fusions in MDA-MB-175-VII and LUAD-0061AS3 cells, respectively, was determined by RT-PCR. The HBECp53 (NRG1 fusion negative) and HBECp53-SLC3A2-NRG1 cells were used as negative and positive controls, respectively. […] Viability results represent the mean±SEM of 2-5 independent experiments in which each condition was assayed in triplicate determinations. Viability data were analyzed by nonlinear regression and the IC50 values for growth inhibition and the 95% confidence interval were determined with GraphPad Prism 8. […] Results represent the mean±SD for one experiment in which each condition was assayed in duplicate.
(§2) For the time-course experiments, cells were plated at a density of 5,000 (HCC-95) or 10,000 (all others) cells per well in 12-well tissue culture plates, and then treated 24 hours later (time 0) with the respective agents. […] Cells were trypsinized and counted at the relevant time-point shown on the graphs. For dose-response studies, cells were plated at a density of 7,500-10,000 cells in white clear-bottom 96-well plates in a volume of […] complete growth media and […] chemicals added at 10× concentration (to achieve 1× concentration) in a final volume of […]. After 96-hour incubation, […] AlamarBlue cell viability reagent was added to achieve a final concentration of 10%. AlamarBlue is a cell permeable […] dye that is reduced when it enters the mitochondria and emits fluorescence at a different wavelength (Gloeckner H, J. Immunol. Methods 2001; 252:131-8). Fluorescence was measured (excitation, 530 nm and emission, 585 nm) using a […] Spectramax M2 Fluorescence Plate Reader, as described previously (Somwar R, J. Biomol. Screen 2009; 14:1176-84). In each experiment, background fluorescence was determined in cells treated with […] of the 20S proteasome inhibitor, carfilzomib, which is toxic to most cells at high concentrations, and was subtracted from all values. There were 3-4 replicates of each condition. Relative IC50 values and 95% confidence interval values were determined by nonlinear regression analysis using GraphPad Prism 8 software using either a variable slope model or in cases where inhibition was only partial, a three-parameter fit was used. […] Each condition was assayed in triplicate in 2-5 independent experiments.
(§3) Cells expressing NRG1 fusions rely on activation of HER3 for growth and survival. […] The estimated IC50 values obtained for growth inhibition are determined.
On the technique in general: The colour change of resazurin is a common sign of viable cells or microbes.

The subject of the next assay is MDA-MB-175-VII cells. Described as above. The note with it: 96 hours. The assay is classed as cell-based, human. The procedure:
as §1, §2, §3

The test system of a further assay is MCF-7 cells. The assay is described as above. The assay is classed as cell-based, human. Particulars: 96 hours. The protocol: as §1, §2, §3
In another assay the test system is HBECp53 cells. Described as above. The class given is cell-based, human. The note with it: 96 hours. The procedure: as §1, §2, §3
The subject of assay [1] is xenograft tumors generated from OVCAR8 cells. The note with it: Sheng Q, et al., Cancer Cell 2010; cited from earlier work.
Assay [2] concerns HER2, HER3, AKT, ERK1/2 phosphorylation and BIM in LUAD-0061AS3 PDX tumors. Put plainly: Western blotting of PDX tumor lysates after single administration. The assay is classed as in vivo, mice. The procedure:
Characterization of the […] PDX model. H&E staining, TTF-1, and phospho-HER3 IHC (FIG. 5A, left to right). […] (FIG. 5B). Tumor volumes were measured twice weekly and plotted overtime. Results represent the mean±SEM. […] Western blotting was performed twice for each protein and representative immunoblots of phosphorylated (p) and total (t) proteins are shown (FIG. 5C).
Crushed PDX tumor samples were mixed with Matrigel (50%) and injected into the subcutaneous flank of 6-week-old female NSG (LUAD-0061AS3) or Balb/c nude (OV-10-0050) mice. When tumors reached approximately 100-150 mm3, mice were randomly assigned to groups of 5-8 and treatment was commenced. There were 2 mice per group with bilateral flank tumors for the protein phosphorylation/expression study in the LUAD-0061AS3 PDX model. Drugs were administered once, and then tumors were collected at 2, 24, and 168 hours posttreatment. Afatinib was administered by oral gavage once daily as a suspension (in 0.5% methylcellulose-0.4% Tween-80) on a 5-days-on and 2-days-off schedule. […] Mice were observed daily throughout the treatment period for signs of morbidity and mortality. Tumor length and width and animal weights were measured twice weekly. Tumor volume was calculated using the empirical formula V=length×width 2×0.52. The percentage change in tumor volume of each tumor was calculated using the formula [(V2−V1)/V1)]×100, where V1 is the starting tumor volume and V2 is the final tumor volume.
Protein phosphorylation was then detected by Western blotting of PDX tumor lysates.
On the technique in general: A western blot detects proteins with antibodies after separation by electrophoresis.

Assay [3] relates to HER3 and AKT phosphorylation in H6c7-SLC3A2-NRG1 cells. As to the kind of experiment: Western blotting of HER3 and AKT phosphorylation. The class given is cell-based, human. Particulars: serum-starved 24 hours. The source says: (§4) H6C7-EV (empty vector) and H6C7-ATP1B1-NRG1 cells were profiled for activated intracellular kinases using phospho-proteomic arrays (FIG. 7A). H6C7-EV and H6C7 cells with the indicated NRG1 fusions were profiled for activated receptor tyrosine kinases (RTK) using phospho-RTK arrays (FIG. 7B). Quantitation of phosphorylated EGFR, HER2, and HER3 is shown (FIG. 7C). Western blot analysis of cell extracts from H6C7-EV and H6C7 cells expressing NRG1 fusions (FIGS. 7D-E). […] All cells were serum-started for 24 hours prior to experimentation.
(§5) Models of isogenic pancreatic cancer cells with NRG1 fusions by lentiviral-mediated cDNA expression of ATP1B1-NRG1 and SLC3A2-NRG1 fusions in immortalized human pancreatic ductal cells (H6c7) were developed. […] Western blotting analysis was used to evaluate protein phosphorylation and expression. The presence of NRG1 fusions was confirmed by reverse transcription polymerase chain reaction (RT-PCR) and next-generation sequencing (NGS).
(§6) There was no regression of afatinib-treated pancreatic PDX tumors. […] This was confirmed using a human-specific GAPH antibody.

The test system of assay [4] is HER3 and AKT phosphorylation in H6c7-ATP1B1-NRG1 cells. As to the kind of experiment: Western blotting of HER3 and AKT phosphorylation. The assay is classed as cell-based, human. The note with it: serum-starved 24 hours.
Description: as §4, §5, §6

B1: seribantumab: anti-ERBB3 (HER3) fully human monoclonal antibody; heavy and light chains SEQ ID NOs: 12 and 13 (antibody)
heavy: EVQLLESGGGLVQPGGSLRLSCAASGFTFSHYVMAWVRQAPGKGLEWVSSISSSGGWTLYADSVKGRFTISRDNSKNTLYLQMNSLRAEDTAVYYCTRGLKMATIFDYWGQGTLVTVSSASTKGPSVFPLAPCSRSTSESTAALGCLVKDYFPEPVTVSWNSGALTSGVHTFPAVLQSSGLYSLSSVVTVPSSNFGTQTYTCNVDHKPSNTKVDKTVERKCCVECPPCPAPPVAGPSVFLFPPKPKDTLMISRTPEVTCVVVDVSHEDPEVQFNWYVDGVEVHNAKTKPREEQFNSTFRVVSVLTVVHQDWLNGKEYKCKVSNKGLPAPIEKTISKTKGQPREPQVYTLPPSREEMTKNQVSLTCLVKGFYPSDIAVEWESNGQPENNYKTTPPMLDSDGSFFLYSKLTVDKSRWQQGNVFSCSVMHEALHNHYTQKSLSLSPGK
light: QSALTQPASVSGSPGQSITISCTGTSSDVGSYNVVSWYQQHPGKAPKLIIYEVSQRPSGVSNRFSGSKSGNTASLTISGLQTEDEADYYCCSYAGSSIFVIFGGGTKVTVLGQPKAAPSVTLFPPSSEELQANKATLVCLVSDFYPGAVTVAWKADGSPVKVGVETTKPSKQSNNKYAASSYLSLTPEQWKSHRSYSCRVTHEGSTVEKTVAPAECS
As for B1, the IC50 in the assay with LUAD-0061AS3 cells (AlamarBlue) stood at 1.4 µM; in the assay with MDA-MB-175-VII cells (AlamarBlue), 0.02 µM; in the assay on MCF-7 cells (AlamarBlue), 45.2 µM; in the assay with HBECp53 cells (AlamarBlue) it was 203 µM. The effect on growth entry with LUAD-0061AS3 cells (dose-response) is on record as “reduced growth in a dose-dependent manner”; in the assay on MDA-MB-175-VII cells (dose-response), “reduced growth in a dose-dependent manner”; in the assay with MCF-7 cells (no NRG1 fusion), “minimal effect”; in the assay on HBECp53 cells (no NRG1 fusion), “minimal effect”. Also, in assay [1], the “growth of xenograft tumors” value is “block growth of xenograft tumors”. In addition, the “BIM expression in tumors” value in assay [2] (0.75 and 1 mg seribantumab, by 2 hours) is “higher levels of BIM than vehicle-treated tumors”; in assay [2] (all doses of seribantumab, 168-hour timepoint) it was “Elevated BIM was present”; in assay [2] (all doses of seribantumab, after 24 hours), “Induction of BIM expression was clearly seen”. The “phosphorylation of HER2, HER3, AKT, and ERK1/2 in tumors” value in assay [2] (all doses of seribantumab (0.6, 0.75, 1 mg), single administration, 2-hour timepoint) is listed as “reduced phosphorylation”. Also, in assay [2] (seribantumab higher doses, 168 hours), the “HER2 phosphorylation in tumors” value is listed as “remained inhibited even after 168 hours”. Further, the “HER3 and AKT phosphorylation” value in assay [3] and in assay [4] was “dose-dependent inhibition” throughout.

What is called IC50 is the concentration that gives 50% inhibition. A low value points to higher potency.
